Data reported in paper doi:10.1101/2025.06.12.659319, “A bipartite, mutation-tolerant NLS regulates interaction of ΔNp63α with importin alpha, nuclear transport and transcriptional activity” (bioRxiv, 2025).
Where no end group is shown, it is not given here. The star is where a group is joined. FITC = O=C1OC2(c3ccc(O)cc3Oc3cc(O)ccc32)c2ccc(NC(=S)*)cc21

Biological target: mouse IMPα2ΔIBB (importin α2 lacking the IMPβ1 binding domain) (mouse, UniProt P52293 70-529)
Test: crystal structure; IMPα2ΔIBB crystals (hanging drop, 650 mM sodium citrate, 100 mM HEPES pH 6.5, 10 mM DTT, 23°C) soaked with the peptide; 2.20 Å
Conditions: both partners purified

- binding result: binds
B1: FITC-ΔNp63α NLSbip peptide (residues 278-302) (peptide)
peptide: {FITC}-DGTKRPFRQNTHGIQMTSIKKRRSP
notes: ΔNp63α (p63), human, residues 278-302, bipartite NLS; numbers count on: the ΔNp63α isoform (Q9H3D4-2); also called p63 NLS; source: synthetic peptide (GenScript)
